T1: PUF4 RNA-binding domain (Saccharomyces cerevisiae, UniProt P25339 537-888)
T1 sequence: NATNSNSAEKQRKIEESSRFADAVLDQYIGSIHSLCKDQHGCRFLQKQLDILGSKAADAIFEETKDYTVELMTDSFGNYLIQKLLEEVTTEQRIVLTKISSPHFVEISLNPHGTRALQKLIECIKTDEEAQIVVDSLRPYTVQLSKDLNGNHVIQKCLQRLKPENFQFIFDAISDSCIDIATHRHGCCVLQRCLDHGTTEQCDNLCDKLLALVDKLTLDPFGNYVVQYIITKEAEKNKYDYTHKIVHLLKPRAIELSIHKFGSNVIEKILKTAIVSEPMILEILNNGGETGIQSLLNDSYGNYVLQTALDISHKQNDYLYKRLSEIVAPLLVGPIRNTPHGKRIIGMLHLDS


Target: T1, PUF4 RNA-binding domain
Assay: Mg; RNA-MaP; 20 mM Na-HEPES pH 7.4, 30 mM KOAc, 0.75 mM MgCl2, 0.1% Tween-20, 5% glycerol, 0.1 mg/mL BSA, 2 mM DTT; 25 C; 0.0125-409.6 nM protein
Conditions: tags: N-His6-TEV cleaved; C-SNAP kept, Cy3B-labelled; label: tethered on chip by stalled RNA polymerase

Binder	Kd [nM]
ACAAACUGCCUCUAUAUUAACAAAC (ssRNA) [Ie_S3_P4E.1_K4.1_C4.1_H4.1_[+2CCTC]_A4.1_F4.1_T4.1]	> 2300
ACAAACUGUAUAUUCCCUAACAAAC (ssRNA) [Ie_S3_P4E.1_K4.1_C4.1_H4.1_A4.1_F4.1_[+8CCCT]_T4.1]	6.57
ACAAACUGCCUCUAUUAUUAACAAAC (ssRNA) [Ie_S3_P5E.1_K5.1_C5.1_H5.1_[+2CCTC]_A5.1_F5.1_T5.1]	> 2300
ACAAACUGUAUUAUUUCUAACAAAC (ssRNA) [Ie_S3_P5E.1_K5.1_C5.1_H5.1_A5.1_F5.1_[+8TTC]_T5.1]	19.1
ACAAACUGUAUAUCUCUCUAACAAAC (ssRNA) [Ie_S3_P4E.1_K4.1_C4.1_H4.1_A4.1_[+7CTCTC]_F4.1_T4.1]	14.6
ACAAACUGUACCUCUAUUAACAAAC (ssRNA) [Ie_S3_P4E.1_K4.1_C4.1_H4.1_[+4CCTC]_A4.1_F4.1_T4.1]	14.7
ACAAACCUUGCCUCUUAUAUAUAACAAAC (ssRNA) [Ie_S3_P3E.2_K3.1_C3.2_H3.1_[+2CCTCT]_A3.1_F3.1_T3.2]	1010
ACAAACUGUCCUAUUAUUAACAAAC (ssRNA) [Ie_S3_P5E.1_K5.1_C5.1_H5.1_[+2TCC]_A5.1_F5.1_T5.1]	101
ACAAACUGCUUUAUUAUUAACAAAC (ssRNA) [Ie_S3_P5E.1_K5.1_C5.1_H5.1_[+2CTT]_A5.1_F5.1_T5.1]	> 2300
ACAAACCUUGCCUUAUAUAUAACAAAC (ssRNA) [Ie_S3_P3E.2_K3.1_C3.2_H3.1_[+2CCT]_A3.1_F3.1_T3.2]	1170
ACAAACUGUACCUCUUAUUAACAAAC (ssRNA) [Ie_S3_P5E.1_K5.1_C5.1_H5.1_[+4CCTC]_A5.1_F5.1_T5.1]	27.2
ACAAACUGUAUUAUUCUCAACAAAC (ssRNA) [Ie_S3_P5E.1_K5.1_C5.1_H5.1_A5.1_F5.1_[+9CTC]_T5.1]	23
ACAAACCUUGCCCUUUAUAUAUAACAAAC (ssRNA) [Ie_S3_P3E.2_K3.1_C3.2_H3.1_[+2CCCTT]_A3.1_F3.1_T3.2]	1020
ACAAACUGUAUUAUUUCCUAACAAAC (ssRNA) [Ie_S3_P5E.1_K5.1_C5.1_H5.1_A5.1_F5.1_[+8TTCC]_T5.1]	21.6
ACAAACUGUACCCUUUUAUUAACAAAC (ssRNA) [Ie_S3_P5E.1_K5.1_C5.1_H5.1_[+4CCCTT]_A5.1_F5.1_T5.1]	30.4
ACAAACUGUAUUAUUCCUCUAACAAAC (ssRNA) [Ie_S3_P5E.1_K5.1_C5.1_H5.1_A5.1_F5.1_[+9CCTCT]_T5.1]	20.7
ACAAACUGUACCUCUUUAUUAACAAAC (ssRNA) [Ie_S3_P5E.1_K5.1_C5.1_H5.1_[+4CCTCT]_A5.1_F5.1_T5.1]	52.5
ACAAACUGUAUUACCUUUAACAAAC (ssRNA) [Ie_S3_P5E.1_K5.1_C5.1_H5.1_A5.1_[+7CCT]_F5.1_T5.1]	221
ACAAACUGUAUUUCUAUUAACAAAC (ssRNA) [Ie_S3_P5E.1_K5.1_C5.1_H5.1_A5.1_[+6TCT]_F5.1_T5.1]	7.3
ACAAACUGUAUCUCUCUAUUAACAAAC (ssRNA) [Ie_S3_P5E.1_K5.1_C5.1_H5.1_A5.1_[+5CTCTC]_F5.1_T5.1]	30.4
ACAAACUGCUUAUAUUAACAAAC (ssRNA) [Ie_S3_P4E.1_K4.1_C4.1_H4.1_[+2CT]_A4.1_F4.1_T4.1]	1800
ACAAACUGUAUUCCCAUUAACAAAC (ssRNA) [Ie_S3_P5E.1_K5.1_C5.1_H5.1_A5.1_[+6CCC]_F5.1_T5.1]	203
ACAAACUGUAUAUUCUCUAACAAAC (ssRNA) [Ie_S3_P4E.1_K4.1_C4.1_H4.1_A4.1_[+7TCTC]_F4.1_T4.1]	6.81
ACAAACCUUUUCCGUAUAUAUAACAAAC (ssRNA) [Ie_S3_P3E.2_K3.1_C3.2_H3.1_[+1TTCC]_A3.1_F3.1_T3.2]	1200
ACAAACUGCUCUAUAUUAACAAAC (ssRNA) [Ie_S3_P4E.1_K4.1_C4.1_H4.1_[+2CTC]_A4.1_F4.1_T4.1]	1270
ACAAACUGCCCUAUAUUAACAAAC (ssRNA) [Ie_S3_P4E.1_K4.1_C4.1_H4.1_[+2CCC]_A4.1_F4.1_T4.1]	1560
ACAAACUCUCUCGUAUAUUAACAAAC (ssRNA) [Ie_S3_P4E.1_K4.1_C4.1_H4.1_[+1CTCTC]_A4.1_F4.1_T4.1]	69.5
ACAAACUGUAUUAUUUCUCAACAAAC (ssRNA) [Ie_S3_P5E.1_K5.1_C5.1_H5.1_A5.1_F5.1_[+9TCTC]_T5.1]	19.4
ACAAACUGUCCUCAUAUUAACAAAC (ssRNA) [Ie_S3_P4E.1_K4.1_C4.1_H4.1_[+3CCTC]_A4.1_F4.1_T4.1]	650
ACAAACUGUCUAUUAUUAACAAAC (ssRNA) [Ie_S3_P5E.1_K5.1_C5.1_H5.1_[+3CT]_A5.1_F5.1_T5.1]	28.6

From publication PMC9352680, “A comprehensive thermodynamic model for RNA binding by the Saccharomyces cerevisiae Pumilio protein PUF4”
